{"source": "paper PMC2637360", "about": "(Structure (London, England : 1993), 2008)", "proteins": {"B1": {"name": "N141A HincII (enzyme)", "chain": "MSFIKPIYQDINSILIGQKVKRPKSGTLSGHAAGEPFEKLVYKFLKENLSDLTFKQYEYLNDLFMKNPAIIGHEARYKLFNSPTLLFLLSRGKAATENWSIENLFEEKQNDTADILLVKDQFYELLDVKRRNISKSAQAPAIISAYKLAQTCAKMIDNKEFDLFDINYLEVDSELNGEDLVCVSTSFAELFKSEPSELYINWAAAMQIQFHVRDLDQGFNGTREEWAKSYLKHFVTQAEQRAISMIDKFVKPFKKYIL"}}, "biological_target": "the molecule itself", "experiment": "crystal structure"}
{"protein": "B1", "values": [{"measurement": "stoichiometry N", "value": 2}]}
